B1: Nonsense-mediated mRNA decay factor SMG5 (Homo sapiens), Q9UPR3 (parent)
chain: MSQGPPTGESSEPEAKVLHTKRLYRAVVEAVHRLDLILCNKTAYQEVFKPENISLRNKLRELCVKLMFLHPVDYGRKAEELLWRKVYYEVIQLIKTNKKHIHSRSTLECAYRTHLVAGIGFYQHLLLYIQSHYQLELQCCIDWTHVTDPLIGCKKPVSASGKEMDWAQMACHRCLVYLGDLSRYQNELAGVDTELLAERFYYQALSVAPQIGMPFNQLGTLAGSKYYNVEAMYCYLRCIQSEVSFEGAYGNLKRLYDKAAKMYHQLKKCETRKLSPGKKRCKDIKRLLVNFMYLQSLLQPKSSSVDSELTSLCQSVLEDFNLCLFYLPSSPNLSLASEDEEEYESGYAFLPDLLIFQMVIICLMCVHSLERAGSKQYSAAIAFTLALFSHLVNHVNIRLQAELEEGENPVPAFQSDGTDEPESKEPVEKEEEPDPEPPPVTPQVGEGRKSRKFSRLSCLRRRRHPPKVGDDSDLSEGFESDSSHDSARASEGSDSGSDKSLEGGGTAFDAETDSEMNSQESRSDLEDMEEEEGTRSPTLEPPRGRSEAPDSLNGPLGPSEASIASNLQAMSTQMFQTKRCFRLAPTFSNLLLQPTTNPHTSASHRPCVNGDVDKPSEPASEEGSESEGSESSGRSCRNERSIQEKLQVLMAEGLLPAVKVFLDWLRTNPDLIIVCAQSSQSLWNRLSVLLNLLPAAGELQESGLALCPEVQDLLEGCELPDLPSSLLLPEDMALRNLPPLRAAHRRFNFDTDRPLLSTLEESVVRICCIRSFGHFIARLQGSILQFNPEVGIFVSIAQSEQESLLQQAQAQFRMAQEEARRNRLMRDMAQLRLQLEVSQLEGSLQQPKAQSAMSPYLVPDTQALCHHLPVIRQLATSGRFIVIIPRTVIDGLDLLKKEHPGARDGIRYLEAEFKKGNRYIRCQKEVGKSFERHKLKRQDADAWTLYKILDSCKQLTLAQGAGEEDPSGMVTIITGLPLDNPSVLSGPMQAALQAAAHASVDIKNVLDFYKQWKEIG
partner: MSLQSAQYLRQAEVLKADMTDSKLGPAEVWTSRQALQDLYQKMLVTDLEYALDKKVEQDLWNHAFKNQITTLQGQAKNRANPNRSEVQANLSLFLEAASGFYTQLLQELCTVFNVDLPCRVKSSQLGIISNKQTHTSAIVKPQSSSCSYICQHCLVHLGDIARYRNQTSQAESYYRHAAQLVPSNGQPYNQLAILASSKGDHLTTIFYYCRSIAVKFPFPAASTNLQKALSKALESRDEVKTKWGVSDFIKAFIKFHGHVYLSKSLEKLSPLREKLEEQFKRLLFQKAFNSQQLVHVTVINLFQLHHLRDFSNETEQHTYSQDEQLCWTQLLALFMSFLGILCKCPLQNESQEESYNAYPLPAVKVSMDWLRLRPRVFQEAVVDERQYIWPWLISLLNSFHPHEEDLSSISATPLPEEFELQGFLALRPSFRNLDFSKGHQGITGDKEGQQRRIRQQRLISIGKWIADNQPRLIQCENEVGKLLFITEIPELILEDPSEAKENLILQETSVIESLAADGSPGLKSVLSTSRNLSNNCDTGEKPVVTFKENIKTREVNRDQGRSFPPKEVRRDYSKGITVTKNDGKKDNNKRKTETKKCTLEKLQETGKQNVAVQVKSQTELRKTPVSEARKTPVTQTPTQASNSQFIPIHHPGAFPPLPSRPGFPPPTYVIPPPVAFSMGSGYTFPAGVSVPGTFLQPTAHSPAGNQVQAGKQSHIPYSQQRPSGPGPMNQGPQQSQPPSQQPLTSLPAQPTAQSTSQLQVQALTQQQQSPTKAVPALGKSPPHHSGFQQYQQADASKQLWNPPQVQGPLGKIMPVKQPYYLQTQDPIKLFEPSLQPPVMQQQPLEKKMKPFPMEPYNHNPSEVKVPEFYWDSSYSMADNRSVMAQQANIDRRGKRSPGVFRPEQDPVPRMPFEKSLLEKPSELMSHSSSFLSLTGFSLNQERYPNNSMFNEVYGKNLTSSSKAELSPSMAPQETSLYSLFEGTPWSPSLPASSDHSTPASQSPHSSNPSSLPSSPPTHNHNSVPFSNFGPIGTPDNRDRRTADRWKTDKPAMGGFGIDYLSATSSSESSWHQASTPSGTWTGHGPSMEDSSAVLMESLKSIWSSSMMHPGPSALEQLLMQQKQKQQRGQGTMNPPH
B2: Nonsense-mediated mRNA decay factor SMG7 (Homo sapiens), Q92540 (parent)
chain: B1 partner
partner: B1 chain

Variants of: B1
Settings: with smg7_human SMG7, Q92540

effect of a mutation on the interaction | Variant
disrupting interaction strength | G120E

Variants of: B2
Settings: with smg5_human SMG5, Q9UPR3

effect of a mutation on the interaction | Variant
disrupting interaction strength | T103E
disrupting interaction strength | G100E

— IntAct's records for PubMed 23348841
